Results from paper PMC4798592.

Assays:
Settings in all cases: EMSA: 20 mM phosphate pH 8.0, 100 mM NaCl, 5% glycerol, with or without TX-100, 0.1 nM 32P-DNA, 20 min on ice, 6% native PAGE
[1] = target: T1, rSarA (Staphylococcus aureus) (UniProt A6QES8); test: DNase I footprinting
T1 sequence: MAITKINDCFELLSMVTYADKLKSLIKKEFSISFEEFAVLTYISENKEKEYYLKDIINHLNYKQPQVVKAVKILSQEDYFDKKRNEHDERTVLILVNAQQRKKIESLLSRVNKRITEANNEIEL

[2] = tested on: rSarA (Staphylococcus aureus); test: EMSA
[3] = tested on: C9W (rSarA C9W) (Staphylococcus aureus); test: EMSA
[4] = tested on: C9W (rSarA C9W) (Staphylococcus aureus); test: EMSA; remark: listed apart in the source
[5] = tested on: rSarA (Staphylococcus aureus); test: EMSA; remark: listed apart in the source
[6] = tested on: C9W (rSarA C9W) (Staphylococcus aureus); test: EMSA; remark: listed apart in the source
[7] = tested on: C9W (rSarA C9W) (Staphylococcus aureus); test: EMSA; remark: listed apart in the source
[8] = tested on: rSarA (Staphylococcus aureus); test: EMSA; remark: listed apart in the source
[9] = tested on: rSarA (Staphylococcus aureus); test: EMSA; remark: listed apart in the source

Row | Substance | binding [1] | Kd [2] [µM] | Kd [3] [µM] | Kd [4] [µM] | Kd [5] [µM] | Kd [6] [µM] | Kd [7] [µM] | Kd [8] [µM] | Kd [9] [µM]
1 | CTATTAGATATTTCTATGTAATGGCAAAATTTATTCCCGACGAAATTCCAAACATAATTAATACCCTTTTTCTCTATTTCTATTTATTAATTTACACTAGTTAATATATAGTTAATTTTTATTTAATAGTTAATTAATTGATTTAATTCTAAGATATTTGTATTTTTATATTGTAATCGATTACATTTTTAAATCAAACAAATCATTAGTTTTAAAGAAATTAATCAATAAAATTAGCTATGT (double strand) [hla promoter DNA, bottom strand labelled (footprinting)] | binds |  |  |  |  |  |  |  | 
2 | hla promoter DNA |  | 0.05 | 0.06 | 0.398 | 0.364 | 0.058 | 0.097 | 0.02 | 0.035
